The record followed here is patent US5767233A, “Soluble cleavable substrates of the hepatitis C virus protease” (Schering Corporation, priority 1995, dated 1998).

“Also recorded” adds a separate entry of the source.

Holding throughout (format): biochemical, Hepatitis C virus (HCV)
Data set [1] concerns the target T1, NS3 protease (pBJ1022, NS3 catalytic domain) (Hepatitis C virus genotype 1a, UniProt P27958).
T1 construct: made in house; host or cells: E. coli M15 [pREP4]
Kind of data set: Enhancement by 4A peptides of NS3 cleavage in the in vitro translation assay. As for the experimental part:
(§1) The plasmid pTS102 encoding the substrate 5A/5B was linearized by digestion with EcoR I and was transcribed using T7 RNA polymerase in vitro. The RNA was translated in presence of ^35 S methionine in rabbit reticulocyte lysates according to the manufacturer's (Promega protocol to produce HCV specific protein. In a 20 μl total reaction mixture containing 10 mM Tris, pH 7.5, 1 mM DTT, 0.5 mM EDTA, and 10% glycerol was placed 2 to 8 μl of ^35 S methionine-labeled translated 5A/5B substrate. The reaction was started with the addition of 10 μl of HCV NS3 protease in solubilization buffer (50 mM Na Phosphate, pH 7.8, 0.3M NaCl, 0.2% Tween 20, 10 mM DTT or BME, 10% glycerol), and incubated at 30° C. for the specified time. Reactions were stopped by adding an equal volume of 2X Laemmli sample buffer (Enprotech Inc.) and heating at 100° C. for 3 minutes. Reaction products were separated by SDS PAGE electrophoresis; gels were fixed, dried and subjected to autoradiography.
(§2) NS4A is able to enhance the NS3 serine protease activity at NS5A/5B site in mammalian cells that transiently coexpress NS3, NS4A, and the various HCV non-structural polyprotein containing downstream cleavage sites. We have studied this enhancement activity in a well defined cell-free biochemical assay, using the partially purified E. coli-expressed pBJ1022 as a source of NS3 protease, and synthetic peptides containing various truncations of NS4A. In our first experiment we used a crude cell lysate of pBJ1022 as the enzyme and NS4A synthetic peptide truncated 33 mer from amino acid 22 to amino acid 54, the carboxy-terminal in vitro translation cleavage reaction.
(§3) To further characterize NS4A enhancement activity additional truncations were made to the NS4A sequence. Truncated peptides were evaluated for their activity in the in vitro translation assay using Ni^2+ chelate column-purified pBJ1022 (NS3 catalytic domain).

Data set [2] has as its system NS3 protease (pBJ1022, NS3 catalytic domain). The data set is described as above. To be noted: no NS3 protease present. As for the experimental part: as §1, §2, §3
The test system of data set [3] is in vitro-translated 5A/5B substrate. Kind of data set: Analysis of refolded NS3 protease activity by in vitro translation assay. The settings on record: in the presence of 4A peptide (33 mer, 2 μM), 30° C., about one hour.
From the text: (§4) To detect HCV NS3 protease activity in trans, we have expressed a 40 kD protein containing the NS5A/5B cleavage site in cell-free translation system and used that as the substrate for the enzyme. The substrate protein produces two protein products of apparent molecular weight 12.5 kD (NS 5A') and 27 kD (NS5B') upon cleavage by the HCV NS3 protease.
as §1, with “(Promega)” for “(Promega”, “protease (SEQ ID NO: 5) with an approximately equimolar amount (2 μM) of the carboxyterminal 33 mer cofactor NS4A (SEQ ID NO: 29)” for “protease”, “about one hour.” for “the specified time.”, “Reaction products were separated by SDS PAGE electrophoresis; gels were fixed, dried and subjected to autoradiography.” left out

For data set [4], the system named is in vitro translated 5A/5B substrate (40 kD protein containing the NS5A/5B cleavage site). Kind of data set: Analysis of NS3 protease activity by in vitro translation assay.
From the text: as §4, §1

T1 sequence (P27958 1028-1209): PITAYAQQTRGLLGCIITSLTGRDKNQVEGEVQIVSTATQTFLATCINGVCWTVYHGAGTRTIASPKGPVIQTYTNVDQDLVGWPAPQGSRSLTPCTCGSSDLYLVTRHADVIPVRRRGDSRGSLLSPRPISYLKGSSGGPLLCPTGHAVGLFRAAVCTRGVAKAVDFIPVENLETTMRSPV

For the molecule “C-terminal 33 amino acid peptide of NS4A: NS4A synthetic peptide truncated 33 mer from amino acid 22 to amino acid 54 (strain HCV-BK) (CVVIVGRIVLSGKPAIIPDREVLYQEFDEMEEC)”, the “enhancement of NS3 mediated cleavage activity” value in data set [1] (Ni2+ chelate column-purified pBJ1022 (NS3 catalytic domain)) is “able to enhance the NS3 mediated cleavage activity”. Further, the “enhancement of NS3 catalytic domain activity at the 5A/5B site” value in data set [1] (crude cell lysate of pBJ1022 as enzyme, 0.01 μM to 1.0 μM peptide, 30 minutes) is listed as “able to enhance the activity of the NS3 catalytic domain in a dose dependent manner”. Besides, the “cleavage of the substrate by the 4A peptide itself or with vector lysate” value in data set [2] is recorded as “did not cleave the substrate”.

B1: HisHIV183: histidine-tagged HCV NS3 protease without solubilizing motif, refolded from E. coli inclusion bodies (protein)
chain: MRGSHHHHHHGSHKARVLAEAMSHGTMAPITAYAQQTRGLLGCIITSLTGRDKNQVEGEVQIVSTATQTFLATCINGVCWTVYHGAGTRTIASPKGPVIQMYTNVDQDLVGWPAPQGSRSLTPCTCGSSDLYLVTRHADVIPVRRRGDSRGSLLSPRPISYLKGSSGGPLLCPAGHAVGLFRAAVCTRGVTKAVDFIPVENLETTMRSPV
With B1, in data set [3], the “trans-cleavage activity of the refolded protease on 5A/5B substrate” value is on record as “active; also recorded: able to cleave 5A/5B substrate in a dose responsive manner”.

B2: pBJ1022: E. coli-expressed His-tagged NS3 protease catalytic domain with hydrophilic tail, named by its plasmid (protein)
chain: MRGSHHHHHHTDPPITAYAQQTRGLLGCIITSLTGRDKNQVEGEVQIVSTATQTFLATCINGVCWTVYHGAGTRTIASPKGPVIQMYTNVDQDLVGWPAPQGSRSLTPCTCGSSDLYLVTRHADVIPVRRRGDSRGSLLSPRPISYLKGSSGGPLLCPAGHAVGLFRAAVCTRGVTKAVDFIPVENLETTMRSPVRKKKRR
With B2, in data set [4] (POROS Ni2+ chelate purification, NS4A amino acids 22 to 54 peptide added at 1 μM), the “HCV protease activity of imidazole-eluted fractions” value was “active”. Further, in data set [4] (crude cell lysate, incubation time of 30 minutes), the “cleavage activity by the protease alone, without the 4A peptide” value was “relatively low cleavage activity”. In data set [4] (two hour assay at 30° C., lysate at 3, 6 and 10 μl, SDS PAGE), the “cleavage of 5A/5B substrate by crude soluble lysate” value is reported as “able to cleave 5A/5B substrate in a dose responsive manner”.

B3: pNB182Δ4A: E. coli-expressed fusion of NS3 catalytic domain (182aa)-G-NS4A(4-54) with hydrophilic tail, named by its plasmid (protein)
chain: MRGSHHHHHHTDPPITAYAQQTRGLLGCIITSLTGRDKNQVEGEVQIVSTATQTFLATCINGVCWTVYHGAGTRTIASPKGPVIQMYTNVDQDLVGWPAPQGSRSLTPCTCGSSDLYLVTRHADVIPVRRRGDSRGSLLSPRPISYLKGSSGGPLLCPAGHAVGLFRAAVCTRGVTKAVDFIPVENLETTMRSPGVLVGGVLAALAAYCLSTGCVVIVGRIVLSGKPAIIPDREVLYQEFDEMEECRKKKRRKLN
On to B3, for which, in data set [4] (30° C., soluble lysate at 1 μl per 20 μl reaction volume), the “time at which 5A and 5B cleavage products began to appear” value was found to be 1 min. In addition, in data set [4] (30 minutes incubation), the “amount of lysate at which cleavage reached a maximum” value was determined as 1 µL; the “least amount of cell lysate at which 5A and 5B cleavage products were detected” value was determined as 0.125 µL. Moreover, the “activity of crude soluble lysate compared with pBJ1022 lysate” value in data set [4] (crude soluble lysate, 30 minutes incubation) is listed as “much more active”. The “cleavage of translated 5A/5B substrate by imidazole-eluted fractions” value in data set [4] (fractions from Ni-NTA column purification) was “all able to cleave the translated 5A/5B Substrate”.
